We go through 1 molecule from US20020160955A1 (published 2002).

Assay in all cases: competitive phage ELISA
A general note: An ELISA detects its analyte on a solid surface through an enzyme-linked reagent.

Assay [1] concerns the target T1, IGF-I P63A (G1S-A70V background) displayed on phage (human; bacteriophage M13).
T1 construct: monovalent M13 phage display; not shown: M13 gene III protein fragment (residues 249-406), the phage display carrier, and its junction to IGF-I
T1 chain: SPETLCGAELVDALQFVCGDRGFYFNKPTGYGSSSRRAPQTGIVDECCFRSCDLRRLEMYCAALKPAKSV
Here is the method:
(§1) Phage particles were harvested and resuspended in PBS buffer as described in Lowman, H. B., “Phage Display of Peptide Libraries on Protein Scaffolds,” in Cabilly, S. (ed.), Combinatorial Peptide Library Protocols (Humana Press Inc.: Totowa, N.J., 1998), pp. 249-264. Then phage concentrations were normalized to yield a maximal ELISA signal of 0.2-0.4 for each mutant (Lowman, in Cabilly, S. (ed.), supra). Threefold serial dilutions of soluble competitor were prepared on non-absorbent microtiter plates (Nunc, F, 96 wells) with binding buffer (0.5% TWEEN™ 20/PBS) containing phage at the previously-determined concentrations. […] After blocking, the plates containing immobilized target were washed with 0.05% TWEEN™/PBS buffer and subsequently incubated with 80 μl/well of the premixed phage-competitor solutions for 1 hour at room temperature. After washing, bound phage was detected with 80 μl/well of a solution containing a primary rabbit anti-phage polyclonal antibody and a secondary goat anti-rabbit monoclonal antibody-horseradish peroxidase conjugate in 0.5% TWEEN 20™/PBS. o-Phenylenediamine (Sigma) and tetramethylbenzidine (Kirkegaard and Perry) were used as chromogenic substrates, resulting in product detection at 492 and 450 nm, respectively. IC₅₀ values were determined by fitting the binding data to a generic saturation curve (Lowman, in Cabilly, S. (ed.), supra). […] Numbers in Table I represent mean +standard deviation of individually assessed IC₅₀ values.
(§2) At least two different clones of every mutant were tested.

Assay [2] addresses T2, IGF-I D12A (G1S-A70V background) displayed on phage (human; bacteriophage M13).
T2 construct: monovalent M13 phage display
T2 chain: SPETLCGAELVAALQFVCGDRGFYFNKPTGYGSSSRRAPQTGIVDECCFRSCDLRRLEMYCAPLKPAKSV
As to the method: as §1, §2

The target in assay [3] is T3, IGF-I Y60A (G1S-A70V background) displayed on phage (human; bacteriophage M13).
T3 construct: monovalent M13 phage display; not shown: M13 gene III protein fragment (residues 249-406), the phage display carrier, and its junction to IGF-I
T3 chain: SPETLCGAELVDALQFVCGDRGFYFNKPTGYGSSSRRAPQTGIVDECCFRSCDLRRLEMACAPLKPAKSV
As to the method:
as §1, §2

The target of assay [4] is T4, IGF-I R21A (G1S-A70V background) displayed on phage (human; bacteriophage M13, not fully specified; Displayed monovalently on M13 phage as a C-terminal fusion to the gene III fragment, which is left out of the letters.).
T4 construct: monovalent M13 phage display; not shown: Display carrier: M13 gene III fragment (residues 249-406) and its junction
T4 chain: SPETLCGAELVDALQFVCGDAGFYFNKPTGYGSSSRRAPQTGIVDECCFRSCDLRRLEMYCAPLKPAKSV
Here is the method: as §1, §2

Assay [5] has as its target T5, IGF-I T41A (G1S-A70V background) displayed on phage (human; bacteriophage M13).
T5 construct: monovalent M13 phage display
T5 chain: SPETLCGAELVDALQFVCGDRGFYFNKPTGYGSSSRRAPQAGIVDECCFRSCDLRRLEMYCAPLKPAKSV
Here is the method: as §1, §2

Assay [6] has as its target T6, IGF-I E46A (G1S-A70V background) displayed on phage (human; bacteriophage M13).
T6 construct: monovalent M13 phage display
T6 chain: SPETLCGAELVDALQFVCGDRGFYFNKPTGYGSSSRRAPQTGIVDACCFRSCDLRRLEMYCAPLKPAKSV
Here is the method:
as §1, §2

Assay [7] deals with T7, IGF-I L57A (G1S-A70V background) displayed on phage (human; bacteriophage M13).
T7 construct: monovalent M13 phage display; not shown: M13 gene III protein fragment (residues 249-406), the phage display carrier, and its junction to IGF-I
T7 chain: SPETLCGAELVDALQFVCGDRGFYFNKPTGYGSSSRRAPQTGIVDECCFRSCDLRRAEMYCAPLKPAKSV
Here is the method:
as §1, §2

Assay [8] concerns the target T8, IGF-I R37A (G1S-A70V background) displayed on phage (human; bacteriophage M13).
T8 construct: monovalent M13 phage display
T8 chain: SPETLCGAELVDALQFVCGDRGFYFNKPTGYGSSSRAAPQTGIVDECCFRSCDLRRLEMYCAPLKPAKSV
Here is the method: as §1, §2

Assay [9] has as its target T9, IGF-I S33A (G1S-A70V background) displayed on phage (human; bacteriophage M13).
T9 construct: monovalent M13 phage display; not shown: M13 gene III fragment (residues 249-406, display partner) and the junction to it
T9 chain: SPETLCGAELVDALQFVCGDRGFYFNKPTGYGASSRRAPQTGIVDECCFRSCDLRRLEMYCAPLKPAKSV
As to the method: as §1, §2

Assay [10] addresses T10, wild-type IGF-I displayed on phage (human; bacteriophage M13, UniProt P69168 267-424).
T10 construct: range 249-406; monovalent M13 phage display; also called IGF-I WT; double-mutation restoring wild-type IGF-I
Here is the method: as §1, §2

Assay [11] has as its target T11, IGF-I R50A (G1S-A70V background) displayed on phage (human; bacteriophage M13).
T11 construct: monovalent M13 phage display
T11 chain: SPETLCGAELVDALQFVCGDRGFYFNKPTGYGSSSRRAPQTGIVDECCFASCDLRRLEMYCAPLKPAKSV
As to the method:
as §1, §2

The target of assay [12] is T12, IGF-I V17A (G1S-A70V background) displayed on phage (human; bacteriophage M13).
T12 construct: monovalent M13 phage display
T12 chain: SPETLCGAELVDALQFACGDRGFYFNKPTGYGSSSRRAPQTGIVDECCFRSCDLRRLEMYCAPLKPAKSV
As to the method:
as §1, §2

The target in assay [13] is T13, IGF-I R56A (G1S-A70V background) displayed on phage (human; bacteriophage M13).
T13 construct: monovalent M13 phage display
T13 chain: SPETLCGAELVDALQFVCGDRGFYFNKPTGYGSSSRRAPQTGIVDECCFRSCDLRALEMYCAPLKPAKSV
As to the method: as §1, §2

For assay [14], the target named is T14, IGF-I S1A (G1S-A70V background) displayed on phage (human; bacteriophage M13).
T14 construct: range 249-406; monovalent M13 phage display
Here is the method:
as §1, §2

The target of assay [15] is T15, IGF-I G19A (G1S-A70V background) displayed on phage (human; bacteriophage M13).
T15 construct: monovalent M13 phage display
T15 chain: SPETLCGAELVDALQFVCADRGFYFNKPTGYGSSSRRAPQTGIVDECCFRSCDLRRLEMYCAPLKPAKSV
As to the method: as §1, §2

B1: human IGFBP-1 (other, UniProt P08833 26-259, looked up)
chain: APWQCAPCSAEKLALCPPVSASCSEVTRSAGCGCCPMCALPLGAACGVATARCARGLSCRALPGEQQPLHALTRGQGACVQESDASAPHAAEAGSPESPESTEITEEELLDNFHLMAPSEEDHSILWDAISTYDGSKALHVTNIKKWKEPCRIELYRVVESLAKAQETSGEEISKFYLPNCNKNGFYHSRQCETSMDGEAGLCWCVYPWNGKRIPGSPEIRGDPNCQIYFNVQN
notes: secreted recombinant protein purified from conditioned medium
For orientation: IC50 means the concentration needed to halve the response being measured. Regarding B1, the IC50 in [1] was above 1000 nM; in [2], 4.3 nM; in [3] it was 6.6 nM; in assay [4], 7.1 nM; in assay [5], 13.7 nM; in assay [6] it was 7.9 nM. Besides, the IC50 in assay [7] came to 21.8 nM; in [8], 12.3 nM; in assay [9], 9.1 nM; in assay [10], 8.4 nM; in assay [11], 16.2 nM; in assay [12], 42.9 nM. In addition, the IC50 in assay [13] came to 13.1 nM; in [14] it was 5.2 nM; in [15], 11 nM.
